Test results from US20240034774A1 (Gilead, published 2024).
Where a chain is given by its changes, count along the chain named.

B1: 1.12.17-1 (antibody, human IgG1, kappa, V domains shown)
VH: QVQLLQSGAAVTKPGASVRVSCEASGYNIRDYFIHWVRQAPGQGLQWVGWINPKTGQPNNPRQFQGRVSLTRHASWDFDTFSFYMDLKALRSDDTAVYFCARQRSDYWDFDVWGSGTQVTVSS
VL: DIQMTQSPSSLSASVGDTVTITCQANGYLNWYQQRRGKAPKLLIYDGSKLERGVPSRFSGRRWGQEYNLTINNLQPEDIATYFCQVYEFFGPGTRLDLKR
B2: 1.13.15-1 (antibody, human IgG1, kappa)
heavy: QVQLLQSGAAVTKPGASVRVSCEASGYNIRDYFMHWVRQAPGQGLQWVGWINPKTGQPNNPRQFQGRVSLTRHASWDFDTFSFYMDLKALRSDDTAVYFCARQRSDYWDFDVWGSGTQVTVSSASTKGPSVFPLAPSSKSTSGGTAALGCLVKDYFPEPVTVSWNSGALTSGVHTFPAVLQSSGLYSLSSVVTVPSSSLGTQTYICNVNHKPSNTKVDKKVEPKSCDKTHTCPPCPAPELLAGPDVFLFPPKPKDTLMISRTPEVTCVVVDVSHEDPEVKFNWYVDGVEVHNAKTKPREEQYNSTYRVVSVLTVLHQDWLNGKEYKCKVSNKALPLPEEKTISKAKGQPREPQVYTLPPSREEMTKNQVSLTCLVKGFYPSDIAVEWESNGQPENNYKTTPPVLDSDGSFFLYSKLTVDKSRWQQGNVFSCSVLHEALHSHYTQKSLSLSPGK
light: DIQMTQSPSSLSASVGDTVTITCQANGYLNWYQQRRGKAPKLLIYDGSKLERGVPSRFSGRRWGQEYNLTINNLQPEDIATYFCQVYEFFVPGTRLDLKRTVAAPSVFIFPPSDEQLKSGTASVVCLLNNFYPREAKVQWKVDNALQSGNSQESVTEQDSKDSTYSLSSTLTLSKADYEKHKVYACEVTHQGLSSPVTKSFNRGEC
B3: 1.13.17-1 (antibody, human IgG1, kappa, V domains shown)
VH: B1 VH with I34M
VL: B1 VL
B4: 1.14.17-1 (antibody, human IgG1, kappa, V domains shown)
VH: B1 VH with I34M, F83A
VL: B1 VL
B5: 1.15.1-1 (antibody, human IgG1, kappa)
heavy: B2 heavy with M34I, V37W, T55W
light: B2 light with F90V
B6: 1.16.1-1 (antibody, human IgG1, kappa)
heavy: B2 heavy with M34I, V37W, T55G
light: B2 light with F90V
B7: 1.17.1-1 (antibody, human IgG1, kappa)
heavy: B2 heavy with M34I, V37W, T55A
light: B2 light with F90V
B8: 1.18.1-1 (antibody, human IgG1, kappa)
heavy: B2 heavy with M34I, V37W, T55H
light: B2 light with F90V
B9: 1.19.1-1 (antibody, human IgG1, kappa)
heavy: B2 heavy with M34I, V37W, S69T
light: B2 light with F90V
B10: 1.20.1-1 (antibody, human IgG1, kappa)
heavy: B2 heavy with M34I, V37W, S69T, L70M
light: B2 light with F90V
B11: 1.21.1-1 (antibody, human IgG1, kappa)
heavy: B2 heavy with M34I, V37W, H73D
light: B2 light with F90V
B12: 1.24.1-1 (antibody, human IgG1, kappa)
heavy: B2 heavy with M34I, V37W, Y84S
light: B2 light with F90V
B13: 1.25.1-1 (antibody, human IgG1, kappa)
heavy: B2 heavy with M34I, V37W, K88S, A89R
light: B2 light with F90V
B14: 1.26.1-1 (antibody, human IgG1, kappa)
heavy: B2 heavy with M34I, V37W, V97T
light: B2 light with F90V
B15: 1.27.1-1 (antibody, human IgG1, kappa)
heavy: B2 heavy with M34I, V37W, S105T
light: B2 light with F90V
B16: 1.28.1-1 (antibody, human IgG1, kappa)
heavy: B2 heavy with M34I, V37W, V97T, S105T
light: B2 light with F90V
B17: 1.29.1-1 (antibody, human IgG1, kappa)
heavy: B2 heavy with M34I, V37W, S115Q
light: B2 light with F90V
B18: 1.30.1-1 (antibody, human IgG1, kappa)
heavy: B2 heavy with M34I, V37W, Q118M
light: B2 light with F90V
B19: 1.31.1-1 (antibody, human IgG1, kappa)
heavy: B2 heavy with L5V, A10E, M34I, V37W, V97T
light: B2 light with F90V
B20: 1.31.31-1 (antibody, human IgG1, kappa)
heavy: B2 heavy with L5V, A10E, M34I, V37W, V97T
light: B2 light with N68T, N72S, N73S, F90V, R95N
B21: 1.31.32-1 (antibody, human IgG1, kappa)
heavy: B2 heavy with L5V, A10E, M34I, V37W, V97T
light: B2 light with N68T, N72S, N73S, F90V, V91T
B22: 1.31.33-1 (antibody, human IgG1, kappa)
heavy: B2 heavy with L5V, A10E, M34I, V37W, V97T
light: B2 light with K49N, N68T, N72S, N73S, F90V, R95N, L98I
B23: 1.31.34-1 (antibody, human IgG1, kappa)
heavy: B2 heavy with L5V, A10E, M34I, V37W, V97T
light: B2 light with K49N, N68T, N72S, N73S, F90V, V91T, L98I
B24: 1.32.1-1 (antibody, human IgG1, kappa)
heavy: B2 heavy with L5V, A10E, M34I, V37W, S105T
light: B2 light with F90V
B25: 1.32.31-1 (antibody, human IgG1, kappa)
heavy: B2 heavy with L5V, A10E, M34I, V37W, S105T
light: B2 light with N68T, N72S, N73S, F90V, R95N
B26: 1.32.32-1 (antibody, human IgG1, kappa)
heavy: B2 heavy with L5V, A10E, M34I, V37W, S105T
light: B2 light with N68T, N72S, N73S, F90V, V91T

What was measured:
BSA = BSA (UniProt P02769 25-607); experiment: single-point ELISA, BSA control
gp120 SHIV SF162 P3 = gp120 SHIV SF162 P3 (SHIV SF162 P3); experiment: single-point ELISA at EC50 conc. of A-1
gp120 Bal = gp120 Bal (HIV (Bal)); experiment: single-point ELISA at EC50 conc. of A-1
gp120 CAAN = gp120 CAAN (HIV (CAAN)); experiment: single-point ELISA at EC50 conc. of A-1

Binder	ELISA A450 (BSA)	ELISA A450 (gp120 SHIV SF162 P3)	ELISA A450 (gp120 Bal)	ELISA A450 (gp120 CAAN)
B1	0.06 A450	0.75 A450	0.9 A450	0.84 A450
B2	0.06 A450	0.52 A450	0.7 A450	0.6 A450
B3	0.06 A450	0.69 A450	1.02 A450	0.78 A450
B4	0.1 A450	0.24 A450	0.89 A450	0.43 A450
B5	0.06 A450	1.24 A450	0.87 A450	1.38 A450
B6	0.07 A450	0.9 A450	0.92 A450	0.87 A450
B7	0.06 A450	0.31 A450	0.84 A450	0.7 A450
B8	0.07 A450	1.36 A450	0.97 A450	1.18 A450
B9	0.06 A450	0.96 A450	0.85 A450	0.93 A450
B10	0.06 A450	0.91 A450	0.89 A450	0.8 A450
B11	0.07 A450	0.82 A450	0.87 A450	0.77 A450
B12	0.06 A450	1.09 A450	0.98 A450	0.9 A450
B13	0.06 A450	1.03 A450	1.07 A450	1.16 A450
B14	0.06 A450	0.94 A450	0.81 A450	1 A450
B15	0.07 A450	0.86 A450	0.86 A450	0.86 A450
B16	0.06 A450	0.99 A450	1.05 A450	0.99 A450
B17	0.06 A450	0.98 A450	1.03 A450	1.08 A450
B18	0.06 A450	1.03 A450	0.81 A450	1.05 A450
B19	0.06 A450	0.87 A450	0.82 A450	0.92 A450
B20	0.07 A450	0.97 A450	0.98 A450	1.02 A450
B21	0.06 A450	0.91 A450	0.98 A450	1.04 A450
B22	0.06 A450	0.74 A450	0.89 A450	0.86 A450
B23	0.06 A450	0.82 A450	0.76 A450	0.86 A450
B24	0.06 A450	0.91 A450	0.93 A450	0.83 A450
B25	0.07 A450	0.66 A450	0.95 A450	0.9 A450
B26	0.08 A450	0.7 A450	0.89 A450	0.9 A450
